Test results from patent US7060266.

B1: human brain carboxypeptidase B, 40 kDa protease (prepro-HBCPB) (protein)
chain: ASASYYEQYHSLNEIYSWIEFITERHPDMLTKIHIGSSFEKYPLYVLKVSGKEQTAKNAIWIDCGIHAREWISPAFCLWFIGHNRMWRKNRSFYANNHCIGTDLNSNFVSKHWCEEGASSSSCSETYCGLYPESEPEVKAVASFLRRNINQIKAYISMHSYSQHIVFPYSYTRSKSKDHEELSLVASEAVRAIDKTSKNTRYTHGHGSETLYLAPGGGDDWIYDLGIKYSFTSNPPVEKLLPLSLK
B2: human brain carboxypeptidase B, 30 kDa mature form (protein)
chain: ASASYYEQYHSLNEIYSWIEFITERHPDMLTKIHIGSSFEKYPLYVLKVSGKEQTAKNAIWIDCGIHAREWISPAFCLWFIGHNRMWRKNRSFYANNHCIGTDLNRNFASKHWCEEGASSSSCSETYCGLYPESEPEVKAVASFLRRNINQIKAYISMHSYSQHIVFPYSYTRSKSKDHEELSLVASEAVRAIEKTSKNTRYTHGHGSETLYLAPGGGDDWIYDLGIKYSFTSNPPVEKLLPLSLK

Key:
[1] = biological target: synthetic Aβ 1-40, P05067
[2] = biological target: natural brain APP pretreated with chondroitinase ABC, P05067
[3] = biological target: natural brain APP prepared from human hippocampus, P05067
[4] = biological target: synthetic Aβ 1-42, P05067

Row | Protein | digestion of synthetic Aβ 1-40 (Western blot) [1] | proteolysis of chondroitinase ABC-pretreated brain APP [2] | proteolysis of natural brain APP (Western blot with anti Aβ 1/14 antibody) [3] | digestion of synthetic Aβ 1-42 (Western blot) [4] | proteolytic activity of native-PAGE fractions for natural brain APP [3]
1 | B1 | low-molecular weight peptides formed in a dose-dependent manner | it was shown that the reaction is almost completely inhibited | the 40 kDa protein degraded natural brain APP, generating a 5.5 kDa fragment as the major component of the 3 to 11 kDa Aβ-containing peptides | low-molecular weight peptides formed in a dose-dependent manner | 
2 | B2 |  |  |  |  | fraction 19 with a molecular mass of about 40 kDa and fraction 11 with a molecular mass of about 30 kDa had similar proteolytic activities
